Source: PMC6768103, “Functional and structural characterization of HspB1/Hsp27 from Chinese hamster ovary cells” (FEBS Open Bio, 2019)
Substitutions are numbered along the chain they refer to. In names and notes the source's numbering stands.

T1: porcine heart citrate synthase (pig, UniProt P00889 28-464)
T1 construct: citrate synthase from porcine heart; Client protein; the complex with CgHspB1 appeared only after heating at 55 °C (heat-denatured CS); also called CS
T1 sequence (looked up): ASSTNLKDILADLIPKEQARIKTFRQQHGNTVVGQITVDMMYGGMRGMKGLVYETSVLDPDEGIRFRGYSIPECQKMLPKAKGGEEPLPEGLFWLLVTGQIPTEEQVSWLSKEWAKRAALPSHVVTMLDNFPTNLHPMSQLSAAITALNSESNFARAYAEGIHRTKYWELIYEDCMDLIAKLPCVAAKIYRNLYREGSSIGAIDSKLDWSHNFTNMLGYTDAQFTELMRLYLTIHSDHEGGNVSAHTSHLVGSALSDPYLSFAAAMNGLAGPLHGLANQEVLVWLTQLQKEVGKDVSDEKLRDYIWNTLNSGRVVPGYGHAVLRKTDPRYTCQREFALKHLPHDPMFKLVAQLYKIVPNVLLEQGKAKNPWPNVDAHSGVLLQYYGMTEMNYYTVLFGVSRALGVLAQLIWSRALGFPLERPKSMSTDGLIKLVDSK

B1: wild‐type CgHspB1 (HspB1/Hsp27 from Chinese hamster ovary cells) (natural protein, Chinese hamster (Cricetulus griseus), UniProt A0A8C2QII0 1-213, looked up)
chain: MTERRVPFSLLRSPSWEPFRDWYPAHSRLFDQAFGVPRLPDEWSQWFSAAGWPGYVRPLPAATAEGPAAVALAAPLAAPAFHRALNRQLSSGVSEIRQTADRWRVSLDVNHFAPEELTVKTKEGVVEITGKHEERQDEHGYISRCFTRKYTLPPGVDPTLVSSSLSPEGTLTVEAPLPKTATQSAEITIPVTFEARAQIGGQEAGKSEQSGAK
notes: HspB1/Hsp27 of Chinese hamster (Cricetulus griseus), full-length gene amplified from total cDNA of CHO cells; deduced subunit mass 23.4 kDa; 16-mer at room temperature by SEC-MALS; the oligomer varies with temperature and concentration; also called CgHspB1WT; HspB1 from CHO cells; source: E. coli BL21 Star (DE3) / BL21 (DE3), pET23b, purified (DEAE, RESOURCE Q, Superdex 200); copies: 16
B2: CgHspB1 with S15D mutation (natural protein, Chinese hamster (Cricetulus griseus), UniProt A0A8C2QII0 1-213, looked up)
chain: B1 chain with S15D
notes: HspB1/Hsp27 of Chinese hamster (Cricetulus griseus), full-length gene from CHO cell cDNA, with S15D; Made by site-directed mutagenesis on pET23b-CgHspB1WT; also called CgHspB1S15D; CgHspBS15D; source: E. coli BL21 (DE3), pET23b, purified (DEAE, RESOURCE Q, Superdex 200)
B3: isopropyl malate dehydrogenase from Thermus thermophilus HB8 (enzyme, UniProt Q5SIY4 1-345, looked up)
chain: MKVAVLPGDGIGPEVTEAALKVLRALDEAEGLGLAYEVFPFGGAAIDAFGEPFPEPTRKGVEEAEAVLLGSVGGPKWDGLPRKIRPETGLLSLRKSQDLFANLRPAKVFPGLERLSPLKEEIARGVDVLIVRELTGGIYFGEPRGMSEAEAWNTERYSKPEVERVARVAFEAARKRRKHVVSVDKANVLEVGEFWRKTVEEVGRGYPDVALEHQYVDAMAMHLVRSPARFDVVVTGNIFGDILSDLASVLPGSLGLLPSASLGRGTPVFEPVHGSAPDIAGKGIANPTAAILSAAMMLEHAFGLVELARKVEDAVAKALLETPPPDLGGSAGTEAFTATVLRHLA
notes: isopropyl malate dehydrogenase (3-isopropylmalate dehydrogenase) from Thermus thermophilus HB8; also called IPMDH

Columns and labels:
[1] = target: the molecule itself; assay: SEC-MALS; TSKgel G3000XL column, buffer B (50 mM Tris/HCl pH 7.5, 0.1 mM EDTA, 150 mM NaCl), room temperature
[2] = target: the molecule itself; assay: SEC; SB-804HQ column on HPLC, buffer B with 20% ethylene glycol, 6 or 12 µM as monomer, heated 30 min at the specified temperature and run at the same temperature
[3] = target: T1, porcine heart citrate synthase; assay: SEC; mixture of CgHspB1WT (30 µM) and CS incubated at 55 °C for 30 min, cooled to 25 °C and analysed at 25 °C; settings: both partners purified
[4] = target: the molecule itself; assay: SEC; mixture of CgHspB1WT (30 µM) and IPMDH incubated at 25 and 55 °C for 30 min and analysed at the same temperature; the 55 °C mixture also cooled and analysed at 25 °C

Binder	stoichiometry N [1]	stoichiometry N [2]	binding result [3]	stoichiometry N [4]
B1	16	~2	binds	
B2		~2		
B3				2
